One experiment addresses T1, drHerA (Deinococcus radiodurans, UniProt Q9RW32).
T1 construct: gene DR_0837; full length, residues 1-618, N-terminal 6xHis tag (pET28a), expressed in E. coli Rosetta (DE3); homohexamer; ADP site between two protomers
T1 sequence (Q9RW32 1-618): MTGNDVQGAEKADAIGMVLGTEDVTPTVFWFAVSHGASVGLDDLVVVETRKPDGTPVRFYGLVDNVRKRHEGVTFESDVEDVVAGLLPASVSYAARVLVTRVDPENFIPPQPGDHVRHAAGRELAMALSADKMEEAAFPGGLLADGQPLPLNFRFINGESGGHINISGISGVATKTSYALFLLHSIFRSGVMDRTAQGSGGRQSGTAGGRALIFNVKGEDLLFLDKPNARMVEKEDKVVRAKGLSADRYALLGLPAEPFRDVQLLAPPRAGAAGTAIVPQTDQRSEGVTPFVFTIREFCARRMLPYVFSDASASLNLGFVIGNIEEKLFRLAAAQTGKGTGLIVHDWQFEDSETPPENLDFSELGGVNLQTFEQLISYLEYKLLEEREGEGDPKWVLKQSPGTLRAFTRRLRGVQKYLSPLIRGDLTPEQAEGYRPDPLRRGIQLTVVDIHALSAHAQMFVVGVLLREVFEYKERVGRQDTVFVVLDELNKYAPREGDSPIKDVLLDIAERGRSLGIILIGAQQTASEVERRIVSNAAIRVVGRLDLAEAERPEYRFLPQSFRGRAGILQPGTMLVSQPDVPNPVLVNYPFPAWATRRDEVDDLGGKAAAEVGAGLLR
Briefly: X-ray crystal structure, […] Å. It is filed as binding. The conditions noted are these: Mg2+; crystals set up with ADP, NaF and AlCl3, only ADP seen; one ADP per protomer.

Experiment [1] concerns the target Deinococcus radiodurans HerA (Deinococcus radiodurans). Briefly: crystal structure; drHerA without any ligand, space group P3(1)21, 3.0 Å; sitting drop at 289 K, 0.1 M HEPES (pH 7.5), 1.3 M NaAc.
For experiment [2] the target is unchanged. The experiment in a line: cryo-EM structure; 2D class averages (top views) of purified drHerA alone, with ADP, with ADPNP or with 46-bp dsDNA; 200 kV Tecnai F20.
Experiment [3] has the same target. The experiment in a line: crystal structure; drHerA with ADP bound (set up with ADP•AlF3, MgAc), space group P2(1)2(1)2(1), 3.4 Å; 0.2 M MgCl2, 0.1 M HEPES (pH 7.8), 14% PEG 3350.
Experiment [4] shares this target. Briefly: cryo-EM structure; purified drNurA-HerA complex, low-resolution (~9 Å) map, 200 kV, 3D refinement with C2 symmetry; drHerA crystal structure and an AlphaFold2 model of drNurA fitted and refined into the map.
The target is the same in experiment [5].
In experiment [6] the target is HerA with point mutations D78A, E80A, and D81A (Deinococcus radiodurans).
For experiment [7], the target named is Deinococcus radiodurans NurA (Deinococcus radiodurans). Briefly: cryo-EM structure; purified drNurA-HerA complex, low-resolution (~9 Å) map, 200 kV, 3D refinement with C2 symmetry; drHerA crystal structure and an AlphaFold2 model of drNurA fitted and refined into the map.

By stoichiometry N is commonly meant the number of molecules, sites or subunits per partner or assembly.

As for `Nc1ncnc2c1ncn2[C@@H]1O[C@H](COP(=O)(O)OP(=O)(O)O)[C@@H](O)[C@H]1O` [ADP], the “X-ray crystal structure, 3.4 Å” value on drHerA is recorded as “each protomer is bound to one ADP molecule”.
Deinococcus radiodurans HerA (enzyme): the stoichiometry N in experiment [1], in experiment [2], in experiment [3] and in experiment [4] was 6 throughout.
On to Deinococcus radiodurans NurA (enzyme), for which, in experiment [5], the ATPase activity of drHerA with drNurA, Mn2+, ds DNA (ATPase mol/protein/min) amounted to 4.18; the ATPase activity of drHerA with drNurA, Mn2+, no DNA (ATPase mol/protein/min) is 0.42; the ATPase activity of drHerA with drNurA, Mn2+, ss DNA (ATPase mol/protein/min) stood at 28.6. In experiment [6], this compound had an ATPase activity of HerA^m with drNurA, Mn2+, ds DNA (ATPase mol/protein/min) of 0.38; an ATPase activity of HerA^m with drNurA, Mn2+, no DNA (ATPase mol/protein/min) of less than 0.01; an ATPase activity of HerA^m with drNurA, Mn2+, ss DNA (ATPase mol/protein/min) of 6.01. The stoichiometry N in experiment [7] was 2.
